Measured values published in patent US20070225231A1.
Where two headings read alike, the source gives them in different places. Positions of bridges follow the written chain, without caps; N, C: chain ends. No end group written: not given here.

How the values were obtained:
[1] = molecular target: peroxidase-anti-peroxidase (PAP) immune complexes (UniProt P00433); test: reverse ELISA: rabbit PAP pre-incubated with soluble MBP; competitor: immobilised MBP
[2] = molecular target: myelin basic protein (MBP) (Sigma); test: reverse ELISA: IgG PAP binding to MBP, no inhibitor
human C1q (human) [3] = molecular target: human C1q (human) (UniProt P02745); test: reverse ELISA: PAP on C1q-coated plate, no inhibitor
Chain of human C1q (human) (P02745 23-245 limits assumed, chain 1 of 3): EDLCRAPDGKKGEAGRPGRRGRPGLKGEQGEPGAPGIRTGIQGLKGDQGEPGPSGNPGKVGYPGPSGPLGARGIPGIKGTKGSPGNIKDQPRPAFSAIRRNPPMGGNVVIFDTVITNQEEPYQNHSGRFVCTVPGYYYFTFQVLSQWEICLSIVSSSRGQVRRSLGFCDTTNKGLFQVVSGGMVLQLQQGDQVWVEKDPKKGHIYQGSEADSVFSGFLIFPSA
Chain of human C1q (human) (P02746 28-253 limits assumed, chain 2 of 3, further chain): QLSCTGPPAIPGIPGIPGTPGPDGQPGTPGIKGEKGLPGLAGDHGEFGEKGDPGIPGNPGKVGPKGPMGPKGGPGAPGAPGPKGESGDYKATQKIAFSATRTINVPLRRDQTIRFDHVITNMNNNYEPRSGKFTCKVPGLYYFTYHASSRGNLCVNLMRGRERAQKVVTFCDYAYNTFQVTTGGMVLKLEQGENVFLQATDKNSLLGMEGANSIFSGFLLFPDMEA
Chain of human C1q (human) (P02747 29-245 limits assumed, chain 3 of 3, further chain): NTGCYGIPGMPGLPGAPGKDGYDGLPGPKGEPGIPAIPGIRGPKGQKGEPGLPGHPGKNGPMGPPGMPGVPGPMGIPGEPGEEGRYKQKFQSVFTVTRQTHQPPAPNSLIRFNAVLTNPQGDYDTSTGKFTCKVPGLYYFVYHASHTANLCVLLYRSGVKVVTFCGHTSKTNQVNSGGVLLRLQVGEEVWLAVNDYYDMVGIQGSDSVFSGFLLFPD

human C1q (human) [4] = molecular target: human C1q (human) (UniProt P02745); test: as above; remark: listed apart in the source
highly purified FcγIIa = highly purified FcγIIa (UniProt P12318); test: reverse ELISA: PAP on FcγIIa-coated plate, no inhibitor
Chain of highly purified FcγIIa (P12318 34-217 limits assumed): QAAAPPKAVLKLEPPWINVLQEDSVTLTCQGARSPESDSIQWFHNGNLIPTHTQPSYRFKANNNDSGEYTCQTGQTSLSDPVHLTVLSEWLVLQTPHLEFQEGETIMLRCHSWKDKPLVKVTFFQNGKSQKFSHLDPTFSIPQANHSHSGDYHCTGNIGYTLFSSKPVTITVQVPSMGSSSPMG

highly purified FcγIII = test: reverse ELISA: PAP on FcγIII-coated plate, no inhibitor
highly purified FcγIIb = highly purified FcγIIb (UniProt P31994); test: reverse ELISA: PAP on FcγIIb-coated plate, no inhibitor
Chain of highly purified FcγIIb (P31994 43-217 limits assumed): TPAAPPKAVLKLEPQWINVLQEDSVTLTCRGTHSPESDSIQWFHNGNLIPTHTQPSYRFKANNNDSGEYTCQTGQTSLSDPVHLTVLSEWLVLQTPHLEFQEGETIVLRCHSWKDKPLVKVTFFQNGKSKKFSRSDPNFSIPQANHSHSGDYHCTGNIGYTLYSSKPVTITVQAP

histone (Sigma) [5] = test: reverse ELISA: IgG PAP binding to histones, no inhibitor
[6] = molecular target: myelin basic protein (MBP) (Sigma); test: reverse ELISA: rabbit PAP on MBP-coated plate, no inhibitor
histone (Sigma) [7] = test: reverse ELISA: rabbit PAP on histone-coated plate, no inhibitor
[8] = molecular target: whole human IgG4 (human) [IgG part: P01861]; test: reverse ELISA: immune complexes on IgG4-coated plate, no inhibitor
Chain of whole human IgG4 (human) [IgG part: P01861] (P01861 other isoform, or with tags, fused parts or gaps): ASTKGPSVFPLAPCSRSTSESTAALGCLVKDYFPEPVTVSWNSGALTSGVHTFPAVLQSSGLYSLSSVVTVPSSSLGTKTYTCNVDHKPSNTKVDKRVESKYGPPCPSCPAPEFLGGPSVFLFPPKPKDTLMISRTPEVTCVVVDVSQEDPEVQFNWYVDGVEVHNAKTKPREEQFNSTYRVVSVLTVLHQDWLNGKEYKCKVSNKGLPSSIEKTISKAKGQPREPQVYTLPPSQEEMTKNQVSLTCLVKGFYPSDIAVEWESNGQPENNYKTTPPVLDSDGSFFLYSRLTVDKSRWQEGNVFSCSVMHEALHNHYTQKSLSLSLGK

[9] = molecular target: peroxidase-anti-peroxidase (PAP) immune complexes (UniProt P00433); test: reverse ELISA: rabbit PAP pre-incubated with soluble histone; competitor: immobilised histone
[10] = molecular target: peroxidase-anti-peroxidase (PAP) immune complexes (UniProt P00433); test: reverse ELISA: PAP pre-incubated with peptide; competitor: immobilised RF
[11] = molecular target: peroxidase-anti-peroxidase (PAP) immune complexes (UniProt P00433); test: reverse ELISA: immune complexes with peptide; competitor: immobilised IgG4
[12] = molecular target: peroxidase-anti-peroxidase (PAP) immune complexes (UniProt P00433); test: reverse ELISA: PAP pre-incubated with peptide; competitor: immobilised FcγIII
[13] = molecular target: peroxidase-anti-peroxidase (PAP) immune complexes (UniProt P00433); test: reverse ELISA: PAP pre-incubated with peptide; competitor: immobilised FcγIIa
[14] = molecular target: peroxidase-anti-peroxidase (PAP) immune complexes (UniProt P00433); test: reverse ELISA: PAP pre-incubated with peptide; competitor: immobilised FcγIIb
[15] = molecular target: peroxidase-anti-peroxidase (PAP) immune complexes (UniProt P00433); test: reverse ELISA: rabbit PAP pre-incubated with peptide; competitor: immobilised MBP
[16] = molecular target: peroxidase-anti-peroxidase (PAP) immune complexes (UniProt P00433); test: reverse ELISA: rabbit PAP pre-incubated with peptide; competitor: immobilised histone
[17] = molecular target: human monomeric IgG (Research Diagnostics); test: RF test kit: peptide pre-incubated with human monomeric IgG, washed, then RF; competitor: RF
[18] = molecular target: peroxidase-anti-peroxidase (PAP) immune complexes (UniProt P00433); test: reverse ELISA: PAP pre-incubated with peptide, then on C1q-coated plate; competitor: immobilised C1q
[19] = molecular target: peroxidase-anti-peroxidase (PAP) immune complexes (UniProt P00433); test: reverse ELISA: PAP pre-incubated with peptide; competitor: immobilised C1q
[20] = molecular target: peroxidase-anti-peroxidase (PAP) immune complexes (UniProt P00433); test: reverse ELISA: rabbit PAP pre-incubated with peptide; competitor: immobilised RF

Chain of peroxidase-anti-peroxidase (PAP) immune complexes (UniProt P00433) (P00433 31-338, one chain of several): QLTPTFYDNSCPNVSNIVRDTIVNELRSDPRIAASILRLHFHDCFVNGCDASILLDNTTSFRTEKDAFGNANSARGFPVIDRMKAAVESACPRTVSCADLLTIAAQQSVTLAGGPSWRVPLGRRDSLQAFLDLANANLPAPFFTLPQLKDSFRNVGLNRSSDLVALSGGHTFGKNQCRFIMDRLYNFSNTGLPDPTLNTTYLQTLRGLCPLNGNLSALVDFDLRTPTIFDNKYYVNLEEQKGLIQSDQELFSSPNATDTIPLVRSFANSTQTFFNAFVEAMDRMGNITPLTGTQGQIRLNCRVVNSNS

Molecule	OD 405 nm [10]	OD 405 nm [11]	OD 450 nm [12]	OD 450 nm [13]	OD 450 nm [14]	OD 405 nm [15]	OD 405 nm [16]	OD 405 nm [17]	OD 405 nm [18]	other results
myelin basic protein (MBP) (Sigma)										OD 405 nm [1]: 0.139 OD
peroxidase-anti-peroxidase (PAP) immune complexes (from UniProt P00433 31-338)										OD 405 nm [2]: 2.34 OD; OD 405 nm (human C1q (human) [3]): 0.467 OD; OD 405 nm (human C1q (human) [4]): 2.35 OD; OD 405 nm (highly purified FcγIIa): 1.6 OD; OD 450 nm (highly purified FcγIIa): 3.6 OD; OD 405 nm (highly purified FcγIII): 1.59 OD; OD 450 nm (highly purified FcγIII): 3.6 OD; OD 405 nm (highly purified FcγIIb): 1.39 OD; OD 450 nm (highly purified FcγIIb): 3.6 OD; OD 405 nm (histone (Sigma) [5]): 2.11 OD; OD 405 nm [6]: 1.03 OD; OD 405 nm (histone (Sigma) [7]): 1.27 OD; OD 405 nm [8]: 0.716 OD
histone (Sigma)										OD 405 nm [9]: 0.057 OD
DCAWHLGELAACT (cyclized by a disulfide bond between the two cysteine residues) [… (SEQ ID NO:42)]	0.622 OD	0.557 OD	1.34 OD	1.48 OD	1.07 OD	0.706 OD	0.729 OD	1.4 OD		
PCARHLGELVWCT (disulfide 2-12 (inferred)) [… (SEQ ID NO:41)]	0.106 OD	0.129 OD	1.6 OD	1.15 OD	1.21 OD	0.489 OD	0.444 OD	1.32 OD	0.205 OD	
APPDCARHLGELVWCT (cyclized by a disulfide bond between the two cysteine residues) [… (printed in Table 8 with SEQ ID NO:14)]		0.107 OD								
RCARHLGELVWCT (disulfide 2-12 (inferred)) [… (SEQ ID NO:5)]	0.152 OD	0.191 OD	3.5 OD	3.4 OD	3.28 OD	0.569 OD	0.359 OD	1.31 OD	0.247 OD	
DCAFHLGELVWCT (cyclized by a disulfide bond between the two cysteine residues) [… (SEQ ID NO:3)]								0.962 OD		OD 405 nm [19]: 0.859 OD; OD 405 nm [12]: 0.81 OD; OD 405 nm [13]: 0.66 OD; OD 405 nm [14]: 0.51 OD; OD 405 nm [20]: 0.267 OD
DCARHLGELVWCT (disulfide 2-12 (inferred)) [… (SEQ ID NO:4)]	0.109 OD	0.096 OD	2.53 OD	2.54 OD	1.95 OD	0.473 OD	0.363 OD	1.23 OD	0.193 OD	
DCAAHLGELAACT (cyclized by a disulfide bond between the two cysteine residues) [… (SEQ ID NO:40)]			2.41 OD	2.43 OD	2.26 OD			1.42 OD	0.458 OD	
